Measurements reported in publication PMC5286483, “Effect of R119G Mutation on Human P5CR1 Dynamic Property and Enzymatic Activity” (BioMed Research International, 2017).
Positions count from the first letter of the chain named. In names and notes the source's numbering stands.

B1: Human P5CR1 R119G mutant (enzyme, UniProt P32322 1-319, looked up)
chain: MSVGFIGAGQLAFALAKGFTAAGVLAAHKIMASSPDMDLATVSALRKMGVKLTPHNKETVQHSDVLFLAVKPHIIPFILDEIGADIEDRHIVVSCAAGVTISSIEKKLSAFRPAPRVIGCMTNTPVVVREGATVYATGTHAQVEDGRLMEQLLSSVGFCTEVEEDLIDAVTGLSGSGPAYAFTALDALADGGVKMGLPRRLAVRLGAQALLGAAKMLLHSEQHPGQLKDNVSSPGGATIHALHVLESGGFRSLLINAVEASCIRTRELQSMADQEQVSPAAIKKTILDKVKLDSPAGTALSPSGHTKLLPRSLAPAGKD
notes: Pyrroline-5-carboxylate reductase 1 (P5CR1), human, encoded by PYCR1, with the ARCL-associated mutation R119G; monomer molecular weight printed as 33.3 kDa; Made by PCR mutagenesis of WT-pET28a-P5CR1; also called R119G P5CR1; pET28a-P5CR1-R119G; source: E. coli BL21 (DE3), inclusion bodies, denatured in 6 M urea, purified (Ni2+-chelating column), renatured, SEC
B2: Human P5CR1 R119H mutant (enzyme, UniProt P32322 1-319, looked up)
chain: B1 chain with G119H
notes: Pyrroline-5-carboxylate reductase 1 (P5CR1), human, encoded by PYCR1, with the mutation R119H; source: expressed mostly as inclusion bodies, purified with a Ni2+-chelating column; plasmid constructed 'by the previous method'

How the values were obtained:
[1] = biological target: the molecule itself; assay: SEC; Superdex-75 column (10/300 mm), 20 mM Caps, pH 9.4, 0.5 M NaCl, 0.5 mL/min; refolded R119G mutant
[2] = biological target: the molecule itself; assay: SEC; R119H mutant (Fig. S4); column and buffer not stated

Protein	stoichiometry N [1]	stoichiometry N [2]
B1	2	
B2		2
